Assay results as given in the supplement of paper PMC9170038.

Tested on: MS2 coat protein
Assay: apparent KD of MS2 coat protein; designed switch direction (-1 OFF switch, 1 ON switch): 1; higher = weaker reporter binding
Procedure, shortened: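 An oligonucleotide input, 200 uM small-molecule ligand, or no input was present during titration of SNAP-549-labelled MS2 coat protein, which was doubled from 0.7 or 1.5 nM to 3 µM. Designed RNA switches had been transcribed on Illumina chips by stalled E. coli RNA polymerase. Apparent KD per design is the median over clusters of curves fitted to normalised cluster fluorescence.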

[1] = Eterna round: R95, input ligand: FMN 200 uM
[2] = Eterna round: R95, input ligand: microRNA oligo, concentration not stated
[3] = Eterna round: R95, input ligand: none
[4] = input ligand: microRNA oligo, concentration not stated

Sequence | apparent KD of MS2 coat protein [1] | apparent KD of MS2 coat protein [2] | apparent KD of MS2 coat protein [3] | apparent KD of MS2 coat protein [4] | apparent KD of MS2 coat protein (input ligand: FMN 200 uM) | apparent KD of MS2 coat protein (input ligand: none)
UAGAGAGGAAGCGAGGAUAUCGUGGGAGGGACAUGAGGAUCACCCAUGUAGGAUGUUGAGAGGAACGAGAAGGCGCAGGAAAGUA [JR_SS2_Sub076] (puzzle: Same State 2) | 92.4 nM | 63.5 nM | 91.2 nM |  |  | 
CACAAUCUAUCUGAGGAUAUCAUGAAAAAAACAUGAGGAUCACCCAUGUGCAGGAAAACUGCAUAUGAGAAGGCAGAUAGAUUGG [salish99_SS2_r3_014] (puzzle: Same State 2) | 29.7 nM | 577 nM | 1090 nM |  |  | 
UAGUAUUAGCGAGGAUAUCGUAUGUUCAAUUUUUUAUAUUGUUUACAUGAGGAUCACCCAUGUUACGAGAAGGCGCAUGGGAUU [JR_SSNG2_Sub081] (Eterna round: R96, puzzle: Same State NG 2) |  |  |  | 371 nM |  | 
GCGGAACAUGAGGAUCACCCAUGUGGAGGGUGUAAAGGAUAUUAUAGAGAGAAGGUAGGGUAAGAAGGUUGCUGGG [JR_SS1_Sub090] (Eterna round: R96, puzzle: Same State 1) |  |  |  | 582 nM | 899 nM | 994 nM
AUAUGAGAAGCAGGAUAUGUGGAGAAGAAAGAAACAGAAGGGCUUAUGGGACAACAUGAGGAUCACCCAUGUUCUCUGUGAUGA [AK SSNG1-V2-2.1] (Eterna round: R96, puzzle: Same State NG 1) |  |  |  | 144 nM | 42.8 nM | 188 nM
GGAGCCAAGGCAGGAUAUUCAUAUUAACAACAUGAGGAUCACCCAUGUAAGGCCAGAAGGCCUUGGGAGAAGGGCCAUGGCUCG [Xeonanis - 13 mod4] (Eterna round: R96, puzzle: Same State NG 2) |  |  |  | 110 nM | 26.2 nM | 187 nM
GAGGGACAGACCAACAUGAGGAUCACCCAUGUCCUCGCAGGUCAGGAUAUUAUGAGGAUCACCCAUGAGAAGGGACGGUGAACC (Eterna round: R96, puzzle: Same State NG 3) |  |  |  | 340 nM | 587 nM | 491 nM
GGUCCGGCCUGAGCUGGACCGGAGCAUGUACAUGAGGAUCACCCAUGUCAUGUACAGGCUUCUUGCUCGUCUUGUUG [JL-shm-2.16 JL Mod] (puzzle: Sensor for hsa-mir-208a) | 314 nM | 15 nM | 421 nM |  |  | 
AAGAAAGUUUACGAGGAUAUGUUCCGCAUAACAUGAGGAUCACCCAUGUGAACAAGAAAGGCGACGCAGAAGGCGUGAGCAAAGA [Atanansori] (Eterna round: R96, puzzle: Same State 2) |  |  |  | 152 nM | 42.4 nM | 219 nM
GCAGUACAUGAGGAUCACCCAUGUCUCUAAAGUCGAGGAUAUGGGCAGGUUAUAUCCGAACCAGAAGGCGAACUGC [SS1 Teenbexe 11] (puzzle: Same State 1) | 68.6 nM | 260 nM | 527 nM |  |  | 
GUAUAACAUGAGGAUCACCCAUGUCAACAAAGUCGAGGAUAUGGGCAGAGAGGAGAAGAACCAGAAGGCGAAUAUG [Mat - Same State 1 - Mod of UCT - D37] (puzzle: Same State 1) | 77.8 nM | 59.2 nM | 122 nM |  |  | 
GUGCUCGUGUAAGGAUAUGCAGCCGUUUCGGCUGCAGAAGGUACUAUAAUACAUGAGGAUCACCCAUGUCUCUAUAGUUUGGUG [salish99_SSNG1_r04_905] (Eterna round: R96, puzzle: Same State NG 1) |  |  |  | 22.3 nM |  | 
AGAAUACAUGAGGAUCACCCAUGUCAACGUAGUCGAGGAUAUGGGCAGCCGUGAGGCGUACUAGAAGGCGAAGAGA [Mat - Same State 1 - Mod of JL - D6] (puzzle: Same State 1) | 99.8 nM | 437 nM | 280 nM |  |  | 
AUAUGAGAAGCAGGAUAUGUGGAGAAGAAACAAACAGAAGGGUUUAUGGGACAACAUGAGGAUCACCCAUGUUCUCUGUGAUGA [AK SSNG1-V2-2] (Eterna round: R96, puzzle: Same State NG 1) |  |  |  | 44.3 nM | 52.5 nM | 59.2 nM
UUGCUCGUGUGAGGAUAUGCCGCCGUUUCGGCUGCAGAAGGUACUCUAAUACAUGAGGAUCACCCAUGUCUCUGUUGUUUCGUG [salish99_SSNG1_r04_935] (Eterna round: R96, puzzle: Same State NG 1) |  |  |  | 52.4 nM | 86.7 nM | 80.9 nM
UGUUGUAUUACAGGAUAUCUAUUAGUUUUGUUUAGAGAAGGGUAUUCACAUGAGGAUCACCCAUGUAUAUACGAGGAAGUUGUG [JMF's solution 97] (Eterna round: R96, puzzle: Same State NG 1) |  |  |  | 40.8 nM |  | 

Sequence | apparent KD of MS2 coat protein [1] | apparent KD of MS2 coat protein [2] | apparent KD of MS2 coat protein [3] | apparent KD of MS2 coat protein [4] | apparent KD of MS2 coat protein (input ligand: FMN 200 uM) | apparent KD of MS2 coat protein (input ligand: none)
GCUGCAAUAAACGCCUACAUGAGGAUCACCCAUGUAUGUAGGCAGGAUAUCGUAUGCAAAGCAUACGAGAAGGGCCGUAGUAGC [Mat - Same State NG 3 - JL Mod - D36] (Eterna round: R96, puzzle: Same State NG 3) |  |  |  | 44.4 nM | 26.4 nM | 56.6 nM
ACUUAGUACAAUUUAGAUCUACAUGAGGAUCACCCAUGUACUGAGGAUAUCAGCUCGAUUAGAGCUGAGAAGGCAGAAGUACUU [SSNG3/8-A2] (Eterna round: R96, puzzle: Same State NG 3) |  |  |  | 159 nM | 45.4 nM | 220 nM
AGCUAUCGAAAACGAUAGCAAAAGCAUGUACAUGAGGAUCACCCAUGUCAUGUAUAAGCUUUUUGCUCGUCUUAAAA [Zipper 23 - 12] (puzzle: Sensor for hsa-mir-208a) | 42.7 nM | 9.86 nM | 34.4 nM |  |  | 
AGAGAACAUGAGGAUCACCCAUGUAGGAUGGGCAUAGGAUAUAGAGGAAUGAGGGAGGAGCUAGAAGGAUGAUGGA [JR_SS1_Sub078] (puzzle: Same State 1) | 110 nM | 192 nM | 145 nM |  |  | 
CGUCGUUUGAUAGGAUAUCGCUUUACAUGAGGAUCACCCAUGUUUACCACGCUGGUUUUUCUUUCCGAGAAGGAUUCUGAUGUU [salish99_SSNG02_r04_023] (Eterna round: R96, puzzle: Same State NG 2) |  |  |  | 25.2 nM | 35.7 nM | 35.9 nM
GCUCGAUGAGCGUUUUACAUGAGGAUCACCCAUGUUCGUGGGCAGGAUAUUUACGUGCGGUGUGUAGAGAAGGGCCCAUCGAGC [SameState NG3 #69] (Eterna round: R96, puzzle: Same State NG 3) |  |  |  | 247 nM | 87.1 nM | 529 nM
GUUACAUGAGGAUCACCCAUGUAUGUGUGGGAGUAAGUGUCUUAGGAUAUCUAUUAGUUAAAUUAAGAGAAGGAAGAUUGUUGU [JMF's solution 15] (Eterna round: R96, puzzle: Same State NG 3) |  |  |  | 91.4 nM |  | 
AGUCCAGCGAAAGCUGGACAAAAGCAUGUACAUGAGGAUCACCCAUGUUUAUGUACAAGCUUUUUGCUCGUCUUAAA [JL mod - D95 - 11] (puzzle: Sensor for hsa-mir-208a) | 274 nM | 14.2 nM | 300 nM |  |  | 
GUAAGUUCGAUGCUCGUCUCUCCGUACAAACAUGAGGAUCACCCAUGUGAUCGGGAAGUAGCCCGAUCAGUAUGGCC [Teonveenes] (puzzle: Sensor for hsa-mir-208a) | 34.8 nM | 24.3 nM | 38.2 nM |  |  | 
UGUUAUUAGACAGGAUAUUGAAUGUUAAGUAUUAACAUGAGGAUCACCCAUGUAUUUGAUUGGUACAAGAAGGGUCAUGUUUGU [JR_SSNG2_Sub015] (Eterna round: R96, puzzle: Same State NG 2) |  |  |  | 303 nM |  | 
AGAGCCGGCACUGAGGAUAUUCAUAUUAAAACAUGAGGAUCACCCAUGUAGGCCAGAAGGCCUUGGGAGAAGGCAGGUCGGCUCG [Mat - Same State 2 - Mod of UCT - D57] (puzzle: Same State 2) | 23.5 nM | 244 nM | 350 nM |  |  | 
AGUCCAGCGAAAGCUGGACAAAAGCAUGUACAUGAGGAUCACCCAUGUUCAUGUACAGGCUUUUUGCUCGUCUUAAA [JL mod - D95 - 8] (puzzle: Sensor for hsa-mir-208a) | 243 nM | 12.6 nM | 175 nM |  |  | 
UUUAGUUGCGGGCAGGAUAUGUGUUAAAAUACAUGAGGAUCACCCAUGUGCGGGUAUAACACCCGACAGAAGGGCCAAUCGCGAC [Laonerce - 2] (Eterna round: R96, puzzle: Same State 2) |  |  |  | 44.2 nM | 13.5 nM | 54.9 nM
GCAGCCGGCACUGAGGAUAUUCAUAUUAAAACAUGAGGAUCACCCAUGUAGGCCAGAAGGCCUUGGGAGAAGGCAGGUCGGCUGG [Mat - Same State 2 - Mod of UCT - D63] (puzzle: Same State 2) | 20.8 nM | 219 nM | 232 nM |  |  | 
UGGCUCAGACGAGGAUAUAUGCGAUCACAUGAGGAUCACCCAUGUCUCGAGCUUCGGCUCGAGGCAUAGAAGGCGUCUGAGCCU [SSNG2/4-A3] (Eterna round: R96, puzzle: Same State NG 2) |  |  |  | 25.9 nM | 13 nM | 27.7 nM
GUUAAACAUGAGGAUCACCCAUGUCAAUGUAGUCGAGGAUAUGGGUAGCCAUGAGGCGUACUAGAAGGCGAGGAGU [Mat - Same State 1 - Mod of JL - D19] (puzzle: Same State 1) | 118 nM | 69.8 nM | 80.5 nM |  |  | 
